Test results: the supplement of paper PMC9170038

Tested on: MS2 coat protein
Assay: apparent KD of MS2 coat protein; designed switch direction (-1 OFF switch, 1 ON switch): -1; higher = weaker reporter binding
In short: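 The reported apparent KD is a per-design median over clusters, from curve fits of normalised cluster fluorescence. Protein titrations used SNAP-549-labelled MS2 coat protein, doubled from 0.7 or 1.5 nM to 3 µM, in Tris-HCl pH 7.5 buffer with KCl, MgCl2, BSA, DTT, tRNA and Tween-20, with no input, 200 uM small-molecule ligand, or an oligonucleotide input. The RNA switches were transcribed on Illumina chips by stalled E. coli RNA polymerase.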

[1] = Eterna round: R95, input ligand: FMN 200 uM
[2] = Eterna round: R95, input ligand: microRNA oligo, concentration not stated
[3] = Eterna round: R95, input ligand: none
[4] = input ligand: microRNA oligo, concentration not stated

UUGAAGUAAGGAUAUACAUGAGGAUCACCCAUGUAAAGGAAAGUAAUGGGAGUAGGAAGUAGAAGGUACGAGGA [JR_Exclu3_Sub062] (puzzle: Exclusion 3)
apparent KD of MS2 coat protein [1]: 49 nM
apparent KD of MS2 coat protein [2]: 66.6 nM
apparent KD of MS2 coat protein [3]: 134 nM

GCCGGGCGUGUAGGAUAUGGCCGGCGGUGCCGGCCAGAAGGACAUGAGGAUCACCCAUGUGCCGGCCUUGGGCCGGCGCCCGGC [-51, -48 kcal and 14% A] (Eterna round: R96, puzzle: Exclusion NG 1)
apparent KD of MS2 coat protein (input ligand: FMN 200 uM): 14.9 nM
apparent KD of MS2 coat protein [4]: 8.09 nM
apparent KD of MS2 coat protein (input ligand: none): 13.3 nM

UCACAGGCUGUGGGUGGUGACAUGAGGAUCACCCAUGUUUUGCUCGUCUUGUGCCGGGCCCGGCGCCCGGGCCCGGC [-41.8, -69.2, A 10%] (Eterna round: R97, puzzle: Sensor, turn-off variant 1)
apparent KD of MS2 coat protein (input ligand: FMN 200 uM): 575 nM
apparent KD of MS2 coat protein (input ligand: none): 1210 nM

UUAAUUAGCUCGCUAGAUCCUCACAUGAGGAUCACCCAUGUGCAGGAUAUCAGCUCGUGUAGAGCUGAGAAGGGCACUGCGAGC [ExNG3/10-A3] (Eterna round: R96, puzzle: Exclusion NG 3)
apparent KD of MS2 coat protein (input ligand: FMN 200 uM): 51.6 nM
apparent KD of MS2 coat protein [4]: 88.2 nM
apparent KD of MS2 coat protein (input ligand: none): 108 nM

AGUACCUGAGUACAAAGUAACAUGAGGAUCACCCAUGUAAAUGGGUGAGAACAAGCUCACCGUUCGUCUUAAAUAAA [JL turnoff v1 79] (Eterna round: R96, puzzle: Sensor v2, turn-off variant)
apparent KD of MS2 coat protein (input ligand: FMN 200 uM): 584 nM
apparent KD of MS2 coat protein [4]: 38.8 nM
apparent KD of MS2 coat protein (input ligand: none): 618 nM

CUGGUCCGAGGAUAUAUUAAGUGAAACAUGAGGAUCACCCAUGUAAUUUAAUGGAUGUAAAUAGAAGGCGGACUAG [Mat - Exclusion 5 - JL mod - D39] (puzzle: Exclusion 5)
apparent KD of MS2 coat protein [1]: 38.9 nM
apparent KD of MS2 coat protein [2]: 35.3 nM
apparent KD of MS2 coat protein [3]: 36.4 nM

UUAUAGUAUGUAGGAUAUCGGUCAGUUUCUGAUCGAGAAGGACAUGAGGAUCACCCAUGUAAGGCUACCGGUUUCUGGUGGCCG [JL ENG1 3.53] (Eterna round: R96, puzzle: Exclusion NG 1)
apparent KD of MS2 coat protein (input ligand: FMN 200 uM): 122 nM
apparent KD of MS2 coat protein [4]: 16.5 nM
apparent KD of MS2 coat protein (input ligand: none): 26.1 nM

AUGUGGGUACGAAGGUGUAGAUUGAGCGUACGUUCUGGAACAUGAGGAUCACCCAUGUCGCUUUUUGCUCGUCUUAU [JR_SV3TOV2_Sub035] (puzzle: Sensor v3, turn-off variant 2)
apparent KD of MS2 coat protein [1]: 25.1 nM
apparent KD of MS2 coat protein [2]: 47.8 nM
apparent KD of MS2 coat protein [3]: 24.1 nM

UAAUUUUUAGUAAGGAUAUCGGUCCCAAGGGACAACGAGAAGGUACAUGAGGAUCACCCAUGUUACGAAAGAAU [Mod of Zala 10 - Jieux - Brourd's Mod of Exclusion 4] (Eterna round: R97, puzzle: Brourd's mod of Exclusion 4)
apparent KD of MS2 coat protein (input ligand: FMN 200 uM): 17.6 nM
apparent KD of MS2 coat protein (input ligand: none): 18 nM

UUUUACAGAGGAUAUGCGAAUAAAUAAAACUUUUUUUUUUAACAUGAGGAUCACCCAUGUAGAAGGCUGAUUUU [Ex2 #25] (Eterna round: R97, puzzle: Exclusion 2)
apparent KD of MS2 coat protein (input ligand: FMN 200 uM): 40 nM
apparent KD of MS2 coat protein (input ligand: none): 48.4 nM

UAUUAGCAAGUAAGGUCCCACAUGAGGAUCACCCAUGUGCUCGUCACCUCAGGUACGGAGCGGAAACUCCCGAUAUG [Sensor-V1 #91] (Eterna round: R97, puzzle: Sensor, turn-off variant 1)
apparent KD of MS2 coat protein (input ligand: FMN 200 uM): 81.4 nM
apparent KD of MS2 coat protein (input ligand: none): 83.1 nM

GGAAUACCCUCGAGUUAUCACAUGAGGAUCACCCAUGUCCCAAGCCUUUUGCUCUGAGCUGCGUAUACGCAGAUGUA [Eternabot (Original) Solution 23] (Eterna round: R97, puzzle: Sensor, turn-off variant 1)
apparent KD of MS2 coat protein (input ligand: FMN 200 uM): 112 nM
apparent KD of MS2 coat protein (input ligand: none): 128 nM

CUAUUGGCAGGAUAUGCUUUUUUAGACAUGAGGAUCACCCAUGUGAUGAAUAUUGGGUUUGCAGAAGGGCCUGAAU [JR_E5_Sub039] (puzzle: Exclusion 5)
apparent KD of MS2 coat protein [2]: 64.2 nM

GCAAAUCAUGUAGGAUAUGCGUGGCGAAGCUAUGCAGAAGGACAUGAGGAUCACCCAUGUGCUUCCGUCUGCGUACAGACGGUA [Mat - Exclusion NG 1 - Mod of JL - D18] (Eterna round: R96, puzzle: Exclusion NG 1)
apparent KD of MS2 coat protein (input ligand: FMN 200 uM): 93.5 nM
apparent KD of MS2 coat protein [4]: 73.4 nM
apparent KD of MS2 coat protein (input ligand: none): 91.3 nM

GUGGAGUAAGGAUAUACAUGAGGAUCACCCAUGUGAGGGUAUGAGAAGGGAAUGAGAGGUAGAAGGUACGAGGG [JR_Exclu3_Sub070] (puzzle: Exclusion 3)
apparent KD of MS2 coat protein [2]: 111 nM

CCGGAAAUGGAGGAUAUAGGAGUCGAUAGACACCUAGAAGGUCAGACAUGAGGAUCACCCAUGUGUCCUACCGG [Fiskers Ex 6 - 88] (puzzle: Exclusion 6)
apparent KD of MS2 coat protein [2]: 14.9 nM

UAGAUGGGAGGAUAUACGUAGAUACAGAUUCGUGUAGUGCUACAUGAGGAUCACCCAUGUAGAAGGCCCGUCUU [JL-ex2-2.23 Mayanne mod] (puzzle: Exclusion 2)
apparent KD of MS2 coat protein [2]: 13.1 nM

GGAAAAUGAGGAUAUACAUGUUUGAUACCUCUACGCCCGCAACAUGAGGAUCACCCAUGUAGAAGGCAUGAAAA [Marius] (puzzle: Exclusion 2)
apparent KD of MS2 coat protein [2]: 13.9 nM

GGGCUCGGAGGAUAUACAUGAGGAUCACCCAUGUAGGGCCCGGGUAUUCCCGGGCCCUGUAGAAGGCUGGGUCU [-39, -36.1 kcal, A 19%, 0-7] (Eterna round: R97, puzzle: Exclusion 3)
apparent KD of MS2 coat protein (input ligand: FMN 200 uM): 19.7 nM
apparent KD of MS2 coat protein (input ligand: none): 16.5 nM

GGUGCGUAUGUUAGGAUAUGCUGGUCCUUGGAUCGGCAGAAGGUACAUGAGGAUCACCCAUGUGGUGUCGUUCC [salish99_Bmod_ex4_103] (puzzle: Brourd's mod of Exclusion 4)
apparent KD of MS2 coat protein [2]: 50.8 nM

GGUCGGCGAGGAUAUACAUGAGGAUCACCCAUGUGAUAGAGUGCACGAAAACGUGUACGUAGAAGGCGCUGACG [Mat - Exclusion 3 - Mod of JL D96] (puzzle: Exclusion 3)
apparent KD of MS2 coat protein [1]: 29.5 nM
apparent KD of MS2 coat protein [2]: 11 nM
apparent KD of MS2 coat protein [3]: 9.24 nM

ACAAGCGAAAGGCUCGUCUUAUUUUUGUAGAGGUUCUAAACAUGAGGAUCACCCAUGUAGUGGUUAUGGUGGAGGUA [JR_SV3TOV2_Sub070] (puzzle: Sensor v3, turn-off variant 2)
apparent KD of MS2 coat protein [1]: 57.1 nM
apparent KD of MS2 coat protein [2]: 64.4 nM
apparent KD of MS2 coat protein [3]: 74.6 nM

UGCAGACGAGGAUAUAAAUUUAAAUACAUGAGGAUCACCCAUGUAUAAAUGUAUUUAAAUUUAGAAGGCGUCUGCU [E5/12-A4] (Eterna round: R97, puzzle: Exclusion 5)
apparent KD of MS2 coat protein (input ligand: FMN 200 uM): 500 nM
apparent KD of MS2 coat protein (input ligand: none): 606 nM

AGCGCCAUCGUGAGAUGGCGUAUUACAUGAGGAUCACCCAUGUAGGAUAUCGAUUGCUUUGCAGUCGAGAAGGACAUGUUCUAG [JL ENG3 3.80 Mod A] (Eterna round: R96, puzzle: Exclusion NG 3)
apparent KD of MS2 coat protein (input ligand: FMN 200 uM): 95.5 nM
apparent KD of MS2 coat protein [4]: 35.9 nM
apparent KD of MS2 coat protein (input ligand: none): 60.6 nM

AGUCGGUCAGGAUAUGCAAACGUGGACAUGAGGAUCACCCAUGUAACGUGGGCCUGGUUUGUAGAAGGGACGAGCA [EX5 #86] (Eterna round: R97, puzzle: Exclusion 5)
apparent KD of MS2 coat protein (input ligand: FMN 200 uM): 35.1 nM
apparent KD of MS2 coat protein (input ligand: none): 34.5 nM

UUUUAACAUGAGGAUCACCCAUGUGAGGAUAUCGUUUUUUAUAUUAAUAUUAAUAAAACGAGAAGGCACAUUUU [JMF 10] (puzzle: Exclusion 1)
apparent KD of MS2 coat protein [2]: 121 nM

UAAGAAGGUGUUAGGAUAUGCAGAGCAGGGCUAAGGCAGAAGGGACAUGAGGAUCACCCAUGUGCUACGGGUGC [Enrainbera] (puzzle: Brourd's mod of Exclusion 4)
apparent KD of MS2 coat protein [1]: 51.2 nM
apparent KD of MS2 coat protein [2]: 37.2 nM
apparent KD of MS2 coat protein [3]: 35.9 nM

AGUACUAACCCGAAAGUGUUAGUACAAUAAGCUUGUGAAACAUGAGGAUCACCCAUGUCCUCAUAAGCUCGUCUUAU [salish99_TOv2_r3_024] (puzzle: Sensor v3, turn-off variant 2)
apparent KD of MS2 coat protein [1]: 16.7 nM
apparent KD of MS2 coat protein [2]: 766 nM
apparent KD of MS2 coat protein [3]: 15.3 nM

UGCCGAUGAGGAUAUACAUUGAAUAAGAUUCAUGUAAAACUACAUGAGGAUCACCCAUGUAGAAGGCAUUGGCU [Mat - Exclusion 2 - JL Mod - D69] (Eterna round: R97, puzzle: Exclusion 2)
apparent KD of MS2 coat protein (input ligand: FMN 200 uM): 25.7 nM
apparent KD of MS2 coat protein (input ligand: none): 15.6 nM

GGUUGUUUUUUCCUUUCUUACAUGAGGAUCACCCAUGUUUCUUGUCGUGCUCGCGUUGCUCGUCUGUCUGUCUGUUG [salish99_TOv1_r3_074] (puzzle: Sensor v3, turn-off variant 1)
apparent KD of MS2 coat protein [1]: 49.9 nM
apparent KD of MS2 coat protein [2]: 36.6 nM
apparent KD of MS2 coat protein [3]: 55.6 nM

AAAGAGCGAGGAUAUACGUAUCGGUGCGGCCCGCCGAUGUGACAUGAGGAUCACCCAUGUAGAAGGCGCAGAAA [Excls2-X] (puzzle: Exclusion 2)
apparent KD of MS2 coat protein [2]: 21.3 nM

GUGUACAGAGGAUAUACUUAUGGAGUUACGAAAGUAACUUCACAUGAGGAUCACCCAUGUAGAAGGCUGUACAC [Dot plot directed v10] (puzzle: Exclusion 2)
apparent KD of MS2 coat protein [2]: 25.9 nM

AAUAACAGAGGAUAUACUAUUUUAUGUAUUUAUUAUUUUGAACAUGAGGAUCACCCAUGUAGAAGGCUGAGUAA [JMF 35] (puzzle: Exclusion 2)
apparent KD of MS2 coat protein [2]: 25.3 nM

AUAUUGUGAGGAUAUGAACUUAGUAUCGAAAGAUACUAAGUACAGAAGGCACAUGAGGAUCACCCAUGUUUCUC [Long static hairpin v2] (Eterna round: R97, puzzle: Exclusion 4)
apparent KD of MS2 coat protein (input ligand: FMN 200 uM): 418 nM
apparent KD of MS2 coat protein (input ligand: none): 85.7 nM

AGUAGGUCUACCUUGGUGGAUCUGCAUAAAGCAAGUGAAACAUGAGGAUCACCCAUGUCCUCAUUUGCUCGUCUUAU [JL turnoff v2 99.20] (puzzle: Sensor v3, turn-off variant 2)
apparent KD of MS2 coat protein [1]: 14.8 nM
apparent KD of MS2 coat protein [2]: 634 nM
apparent KD of MS2 coat protein [3]: 13 nM
